41 sequences from the nanobody polyreactivity screen of Harvey et al. (2022) can be followed below.

The series is described as follows: yeast display, Sf9 membrane polyspecificity reagent, FACS + sequencing; frameworks hold sequencing errors. The procedure, abridged:
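Sorting gates, low and high (top ~1%), were placed on anti-HA fluorescence to track expression and on streptavidin fluorescence to track reagent binding. A clone's polyreactivity label is taken from the gate it came out of. The reagent was 10% biotinylated, detergent-solubilized Sf9 membrane, applied for 1 hour at 4 °C to galactose-induced yeast display cells.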
Regarding “QVQLVESGGGLVQAGGSLRLTCAASGRTFARNAMGWYRQAPGKERELVAAITRSGGSTYYADSVKGRFTISRDNAKNTVYLQMNSLKPEDTAVYYCAADVRTYRGYYWKAFDYWGQGTQVTVSS”, the “polyreactivity (PSR sort gate)” value was “high polyreactivity”.

As to “QLQLVESGGGLVQAGGSLSLSCAASGSTFDYYDMGWYRQAPGKERELFSYISWSGGSTRYADSVKGRYTISRDNAKNTVYLQMNSLKPEESAVYYCNKSNPDYDRLAIHAFDYWGQGTQLTVSS”, the “polyreactivity (PSR sort gate)” value was “low polyreactivity”.

On to “QVQLVESGGGLVQAGGSLRLSCAASGRIFYPYAMGWYRQAPGKERELVAAITSGGSTYYADSVKGRFTISRDNAKNTVYFQMNSLKPEDTAVYYCAADVVDLYLLDYWGQGTQVTVSS”, for which the “polyreactivity (PSR sort gate)” value is “low polyreactivity”.

Take “QVQLVESGGGLVQAGGSLRLSCAASGSTFKKNAMGWYRQAPGKERELVAAISKRGGRTYYADSVKGRFTISRDNAKNTVYLQMNSLKPEDTAVYYCNAGQQHFDEEEYDYWGQGTQVTVSS”: the “polyreactivity (PSR sort gate)” value is “high polyreactivity”.

For “QVQLVESGGGLVQAGGSLRLICAASGSTFLSNAMGWYRQATGKERELVAAITTSGTSTFYSDSVKGRFTISRDNAKNTVYLQMNSMKPEDTAVYYCAADSAHRYIPVQGYDYWGQGTQVTVSS”, the “polyreactivity (PSR sort gate)” value is “low polyreactivity”.

Turning to “QVQLVESGGGLVQAGGSLLLSCAASGRTFQDNAMGWYRQAPGKERELVAAISWRGGSTNYADSVKGRFTISRDNAKNTVYLQMNSLKPEDTAVYYCTRDPRKYGKLDYWGQGTQVTVSS”, the “polyreactivity (PSR sort gate)” value is “low polyreactivity”.

As for “QVQLLESGGGLVQAGGSLRLSCAASGSIFGGYSMGWYRQAPGKERELVAAISWSGASTYYADSVKGRFTISRDNATTTVSLQMNSLKPEDTAVYSCAARSRVDLARSGYWGQGCQVTVSS”, the “polyreactivity (PSR sort gate)” value is “low polyreactivity”.

As for “QVQLVESGGGLVQAGGSLRLSCAASGLTFRAYVMGWYRQAPGKERELVAAISVSGGSTYYADSVKGRFTISRDNAKNTVYLQMNSLKPEDTAVYYCAAAAKSWLFDYWGQGTQVTVSS”, the “polyreactivity (PSR sort gate)” value is reported as “high polyreactivity”.

As to “QVQLVESGGGLVQAGGSLRLSCAASGFIFTGYAMGWYRQAPGKERELVATISRRGGSTYYADSVKGRFTISRDNAKNTVYLQMNSLKPEDTAVYYCAAQRTLYRSGFDSWGQGTQVTVSS”, the “polyreactivity (PSR sort gate)” value is “high polyreactivity”.

In the case of “QVQLVDSGGGLVQAGGSLGLSCAASGSIVKYYAMGWYRQAPGKEREVVAAISSIGGRPYYADSVKGRFTISRDNAKNTVYLQRNSLKPEDTSVFYCARRFRRTGESEYEYWGQGTQVTVSS”, the “polyreactivity (PSR sort gate)” value is given as “high polyreactivity”.

As for “QVQLVESGGALVQAGGSLRISCAASGSIFPQNAMGWYRQAPEKERELVAAITTGGGRTYYADSVKGRFTISRDNVKNTVYLQMNSLKPEDTAVYYCYIRWPFRHYGSWGLGTQVTVSS”, the “polyreactivity (PSR sort gate)” value was “high polyreactivity”.

In the case of “QVQLVESGGGLVQAGGSLRLSCDGSGSIISAYTMEWYRQAPGKEREYVAAIRWSGDSTYYSDSVKGRFTISRDNAKNTVYLQMNSLKPEDTAVYYCAARDLWFPRYSSRYYYWGQGTQVTVSS”, the “polyreactivity (PSR sort gate)” value is recorded as “high polyreactivity”.

Take “QVQLLESGGGLVQAGGSLRLSCAASGRIFDYYAMGWYRQAPGKERELVAAISDSGDSTYYADSVKGRFTISRDNAKNTVYLQMNRLKPVDTAVYYCAAQGGWIPAQDVRSSWGYNYWGQGTQVSVSS”: the “polyreactivity (PSR sort gate)” value is on record as “high polyreactivity”.

Consider “QVQLVESGGGLVQAGGSLRLSCASSGSIFSYNAMGWYRQAPGKERELVAAITRSGGSTYYADSVKGRFTISRDNAKNTVYLQMNSLKPEDTAVYYCAVYLPYSQRYVHYYYWGQGTQVTVSS”, for which the “polyreactivity (PSR sort gate)” value is recorded as “high polyreactivity”.

As to “QVQLVESGGGLVQAGGSLRLSCADSARIFSFNTMGWYRQAPGKETELVAAISYRGRTYYADSVKGRFTISRDNAKKTVYLQMNSLKPEDTAVYYCIAVYGYWYGSWGQGTQVTVSS”, the “polyreactivity (PSR sort gate)” value was “high polyreactivity”.

With “QVQLVESGGGLVQAGGSLRLSCAASGSIFSINAMGWYRQAPGKERELVAAISWSGGSTYYADSVKGRFTISRDNAKNTVYLQMNSLKPEDTAVYYCAASYWDTEPGYREYDYWGQGTQVTVSS”, the “polyreactivity (PSR sort gate)” value is “low polyreactivity”.

Regarding “QVQLVESGGGLVQAGGSLRLSCAASGIIFAQYTMGWYRQAPGKERELVAAINRNGGSTYYADSVKGRFTISRDNAKNTVYLQMNSLKPEDNAVYYCIADALGFRFDYWGQGTQVTVSS”, the “polyreactivity (PSR sort gate)” value is listed as “low polyreactivity”.

Consider “QVQLVESGGGLVQAGGSLRLSCAASGRIFNTYAMGWYRQAPGKERELVAAISWRGVSTYYADSVKGRFTISRDNAKNTVYLQMNSLKAEDTAVYYCAALPFWWGGYWGQGTQVTVSS”, for which the “polyreactivity (PSR sort gate)” value is recorded as “high polyreactivity”.

As to “PVQLVESGGGIVQAGGSLRLSCAASGTSFEYNAMGWSRPAPGKERELVAAITWSVGSTYYADSVKGRFTISRDNAKNTVYLQMNSLKPEDTAVYYCAAFDTASVYEFDYWGQGTQVTVSS”, the “polyreactivity (PSR sort gate)” value is listed as “low polyreactivity”.

Take “QVQLVESGGGLVQAGGSLRLSCAASGRIFKKNAMGWYRQAPGKERELVAAISYRGGSTYYADSVKGRFTISRDNAKNTVYLQMNSLKPEDTAVYYCNVGSRGGWDASDYDYWGQGTQVTVSS”: the “polyreactivity (PSR sort gate)” value is on record as “high polyreactivity”.

With “QVQLVESGGGLVQAGGSLSLSCAASGFTFGTYTMGWYRQAPRKEREFVAAISFSGTTTYYADSVKGRFTISRDNAKNTVYLQMNSLKPEDTAVYYCATRSPRKGVKGHFRYYYWGQGTQVTVSS”, the “polyreactivity (PSR sort gate)” value is listed as “high polyreactivity”.

Regarding “QVQLVESGGGLVQAGGSLRLSCAASGFTFNDYAMGWYRQAPGKERELVAAIDWSGGRTYYADSVKGRFTISRDNAKNTVYVQMNSLKPEDTAVYYCAAVLYSRLYWYRLDYWGQGTQVTVSS”, the “polyreactivity (PSR sort gate)” value was “low polyreactivity”.

“QVQLVETGGGLVQAGGSLRLSCAASGRIFWRNDMGWYRQAPGKERELVAAISGSGGSTSYADSVKGRFTISRDNAKNTVYLQLNSLKPEDTAVYYFAADSESVGYEYWGQGTQVTVSS”: the “polyreactivity (PSR sort gate)” value is recorded as “high polyreactivity”.

Turning to “QVQLVESGGGLVQAGGSLRLSCAASGSIFNYYTMGWYRQAPGKERELVAVITWSDDSTYYADSVKGRFTISRDNAKNTVYLQMNSLKPEDTAVYYCNARSWGWYRIAYGYWGQGTQVTVSS”, the “polyreactivity (PSR sort gate)” value was “low polyreactivity”.

As for “QVQLVESGGGLVQAGGSLRLSCAASGSIFSTYAMGWYRQAPGKERELVATIRRGGSTYYADSVKGRFTISRDNAKNTVYLQMNSLKPEDTAVYYCAATVSSYPYYRYYSWGQGTQVTVSS”, the “polyreactivity (PSR sort gate)” value is given as “high polyreactivity”.

Turning to “QVQLVESGGGLVQAGASLRLSCAASGRTFWYNAMGGYRQAPGKERELVAAISSTGGRTYYADSVKGRFTISRDNAKNTVYLQMNSLKPEDTAVYYCAARQLSSHYDYWGQGTQVTVSS”, the “polyreactivity (PSR sort gate)” value is “low polyreactivity”.

Take “QVQLVESGGGLVQAGCTLRLSSAASGRIYRYNVMGWSRQAPGKESELVAGISSGGSTNYADSVKGRFTISRDNAKNTVYLQMTSLKPEDTAVYFCSKRWLNAKPYGQAMYSWGQGTQVTVSS”: the “polyreactivity (PSR sort gate)” value is “high polyreactivity”.

For the sequence “QVQLVESGARLVQEGGSLRLSCAASGSIFGRYVMGGYRQEPGKEREFVAAITYSGSSTYYADSVKGRFTISRDNAKNTVYLQMNSLKPEDSAVYYCNTYPGSFYWMGYWGQGTQVTVSS”, the “polyreactivity (PSR sort gate)” value was “high polyreactivity”.

Regarding “QVLLVESGGGLVQAGGSLRLICAASGSIFGVYAMGWFRQAAGKDRELVAAISLSGTSTYYADSVKGRFTISRDNAKNTVYLQMNSLKAEDTAVYYCAAPWRLFSLYDYWGQGTQVTVSS”, the “polyreactivity (PSR sort gate)” value is given as “low polyreactivity”.

As to “HVQLVESGGGLVQAGGSLRLSCAASGSIFWGNAMGWYRQAAGKERELVAAISWGGGRTYYADSVKGRFTISRDTAKNTVYLQMNSLKPEDTAVYYCNTRYPYVVSTGYDYWGQGTQVTVSS”, the “polyreactivity (PSR sort gate)” value was “high polyreactivity”.

On to “QVQLVEAGGGLVQAGGSLRLSCAASGSIFVGYAMGWYRPAPGKEREFVAAINYRGGATYYADSVKGRFTISRDNAKNTDYLQMNSLQPEDTAVYYCAVGGWVIYPASLDYWGQGTQVTVSS”, for which the “polyreactivity (PSR sort gate)” value is on record as “low polyreactivity”.

Take “QVQLVESGGGLVQAGGSLRLSCAASGSNFRGYTMGWYRQAPGKERELVAAISLSGGSTYYADSVKGRFTISRDNAKNTVYLQMNSLKPEDTAVYYCAASLPWYDEFDYWGQGTQVTVSS”: the “polyreactivity (PSR sort gate)” value is on record as “low polyreactivity”.

With “QVQLVESGGGLVQAGGSLRLSCAASGRNFGPYAMGWSRQAPGKERELVASITRSGGRTYYADSVKGRYTISRDNAKNTVYLQMNSLKPEDTAVYYCAAGGFSKSYYYWGQGTQVTVSS”, the “polyreactivity (PSR sort gate)” value is given as “high polyreactivity”.

As to “QVQLVESGGGLVQAGGSLRLSCAASGIIFGFNAMGWYRQAPGKETELVAAINGDDSTYYADSVKGRFTISRDNAKNTVYLQMNSLKPEDTAVYYCAARYYRYLTFTGELLVYYWGQGTQVTVSS”, the “polyreactivity (PSR sort gate)” value is reported as “low polyreactivity”.

For “QVQLVESGGGLVQAGGSLRLSCSASGRTFDVYAMGWYRQAPGKERELVATIRSDGSTTYADSVKGRFTISRDNAKNTVYLQMNSLKPEDTAVYFCAADFRSGFSSSTTPVQSDWGQGTQVTVSS”, the “polyreactivity (PSR sort gate)” value is “low polyreactivity”.

Consider “QVQLVESGGGLVQAGGSLRLSCAASGSTFHVYAMGWYRQAPGKERELVAGITSSGYSTYYADSVKGRFTISRDNAKNTVYLKMNSLKPEETAVYYCNADIRGPYYYHRYDYWGQGTLVTVSS”, for which the “polyreactivity (PSR sort gate)” value is listed as “low polyreactivity”.

As to “QVQLVESGGGLVQAGGSLRLSCAASGSIFRPNAMGWNRQAPGKERELVAAINTSDDSTYYADSVKGRFTISRDNAKNTVYLQMNSLKPEDSAVYYCAADPRTYWTHSYYWGQGTQVTVSS”, the “polyreactivity (PSR sort gate)” value is “low polyreactivity”.

As to “QVQLVESGGGLVQAGGSLRLSCAASGFIFGYNAMGWSRQAPGKERELVAAITWSGGSTYYADSVKGRFTISRDIAKNTVYLQMNSLKPEDTAVYYCNWPGEGDYWGQGTQVTVSS”, the “polyreactivity (PSR sort gate)” value was “low polyreactivity”.

For “QDQLVDSGGGLVQAGGSLRLSCAASGFTFSLNTMGWYRQAPGKERELVAAINSGDSTYADSVKGRFTISRDNAKNTVYLQMNSLKPEETAVYYCNADPDWWYPYNYWGQGTQVTVSS”, the “polyreactivity (PSR sort gate)” value is on record as “low polyreactivity”.

On to “QVQLVESGGGLVQAGGSLRLSCAASGRTFTRNAMGWYRQAPGKERELVAVITSSGRTNYADSVKGRFTISRDNAKKTVYLQMNSLKPEDTAVYYCNKVSARYPYPLYDYWGQGTQVTVSS”, for which the “polyreactivity (PSR sort gate)” value is given as “high polyreactivity”.

In the case of “QVQLVESGGGLVQAGGSLRLSCAASGRIFAHNAMGWYRQAPGKERELGASINSGGSTTYADSVKGRFTISRDNAKNTVYLQMNSLKPEDTAVYDCAKRDKYGKYDYWGQGTQVTVSS”, the “polyreactivity (PSR sort gate)” value is on record as “low polyreactivity”.
